This data set can be described thus: soluble on expression in E. coli; label from the status in PepcDB or PDB records.
Take “MNRKKLAAYGQEFEDDDEEGSSVSKKPTQIHEEIATDEKGKRRFHGAFTGGFSAGYWNTVGSKQGWVPQVFSSSRNERGEQIKQRAEDFMDAEDLGEYGIGNRSIKQTAAFGEGAGQKRKMAWERDTTSISTITQMFEDVVKPVSNSIGVRMLRSMGWREGRGIGLANVKQKQKRGGESSEAQFDREQASKVAPAYEFSNEDALVKQLTPLTGTHGIGYQGLRKTTVLNESYGRTTLALKSGKKNSKGIKGQAFGVGAFEEEDESVYSNYDLSQFDFSLDVAGASEESNLKTQKLVTAFELQPKRLNPRKFYAPPRVPPNFRGDHRPIPMDISKLPQMMKNDVKHMNAEQRAKFLGEDRVNALEIGGKSSKKPTERRSRWDIKANEVEKRDNERGGGEAEEDRDRRQRNRIEFPDEPMRQARFKEFLHYIRRGLPYPQPTDLTVWEWEWEKKEFESKLTSDERGMLPEVQSRAQPLAKTAIAAPIHEMMASKFVKEAGGDLKVGTKDEDKLAAVKMEMFGEKTRQSFDWYPDNLLAKRFNVPHPYPGSDTVGVPALQKTDWKRKDRLADIGGVSATLGLPNTANEIEMRERLLKSRAQRGAEEKKRNQSDDDDEKEYDDKDSDEEEENEAEPNNQKVDKAPKSFFDFIFGDGDGADSDESNSEDEEAEEKERQEILKKREEDLKRRREIVEKKEEENRKRVEKELKELENRDLLRVSKQQEDDDIQIIDETSASSFGPALPPSSKPVLSKTEVLKLLEKNMKKKKKDKKEKEKKKKSKKSKKSKKEKKTKRKHSSSSADDSGDNSDGWEEKK”: the “soluble on expression in E. coli” value was “not soluble”.

Consider “MKKLFNQVLVAAGVLALLAGCASEEENVIMAPLPIVKSEFTPKTLWSASVGDGVGHYFSKLAPDYAYDKVFVASRDGVVKALDPQNGKVIWTTDLEIEGSARLSGGITAAFGKLFIGSENGVVNALDAETGEPLWASAIEGEVLAAPAADNNIVIVNTSRGALIALNQEDGAQKWTISTEVPNLTLRGDSRPTAVAGGVFWGTPSGRLAAAIAERGQLIWQQPVGQPKGATEIDRLVDVDASPLVIGGTLFTVGFNGQLIAIDLRSGQPIWKRNYSSATDMATDGSRLYLVTDKDHLVAVDTRSGTELWSNTQLEHRLLTAPKMIDDYLVVGDAEGYLHWIDRNSGEFIAQQLVNDSGFAVGPLALNDGYVIVTRNGQIKKLTIQQ”, for which the “soluble on expression in E. coli” value was “not soluble”.

As for “MSLATLKDVALHAGVSVTTVSNFINNKKKLKDDTRHNILEAIQATGYRHNALAASLKKSSASLRSIGIISIVDQNPFFSELFFKLENECFKQDFTVISCFRHKDKEDLHTYINLMSGRVDGIILISLKRDKIDNVIKHIHAVPVVAIAFDIGDVMSLCGGTEFNLHNETGGYIAGRFLLSKGHKKIACVTGPKALKTTVNRIAGLKKALADFNLPEDSVDFIEGNYTYQSGVDAMYQLFSSVALPTAIICHNDLMAIGVQNAANELGLKIPRELSVIGYDDIEMSKLSFPSLTTVRIPLDDIACQALEGLSMKMATPGSKAIISATPSLVVRGSVSKGIITITTDPNSSSVDKLAAALEHHHHHH”, the “soluble on expression in E. coli” value is reported as “soluble”.

“MGSSHHHHHHNYNIPTTENLYFQGHMNIGLLEALDQLEEEKGISKEEVIPILEKALVSAYRKNFGNSKNVEVVIDRNTGNIKVYQLLEVVEEVEDPATQISLEEAKKIDPLAEVGSIVKKELNVKNFGRIAAQTAKQVLIQRIRELEKEKQFEKYSELKGTVTTAEVIRVMGEWADIRIGKLETRLPKKEWIPGEEIKAGDLVKVYIIDVVKTTKGPKILVSRRVPEFVIGLMKLEIPEVENGIVEIKAIAREPGVRTKVAVASNDPNVDPIGACIGEGGSRIAAILKELKGEKLDVLKWSDDPKQLIANALAPATVIEVEILDKENKAARVLVPPTQLSLAIGKGGQNARLAAKLTGWKIDIKPIMNL”: the “soluble on expression in E. coli” value is given as “soluble”.

In the case of “MWRRHYKLVPQIDTRDCGPAVLASVAKHYGSNYSIAYLRELSKTNKQGTTALGIVEAAKKLGFETRSIKADMTLFDYNDLTYPFIVHVIKGKRLQHYYVVYGSQNNQLIIGDPDPSVKVTRMSKERFQSEWTGLAIFLAPQPNYKPHKGEHHHHHH”, the “soluble on expression in E. coli” value is recorded as “soluble”.

On to “VAVGDVDAPVGLVVFSDYQCPFCAKWSDETLPQMMKHVEDGNLRIEWREVNIFGEPSERGARAAYAAGLQDAYLEYHNALFANGEKPSEDLLSEEGLIKLAGDLGLDESKFTADFQSPETAVAIAQHQQLGIDLGAYSTPAFLLGGQPIMGAQPASVFEAAFEQALAAKE”, for which the “soluble on expression in E. coli” value was “not soluble”.

For the sequence “MSLQNHDLESIKQAALIEYEVREQGSSDVLDSNISKEPLEFIIGANQIIVGLEKAVLKAQIGEWEEIVIAPEEAYGVYESGYLQEVPRDQFEGIELEKGMSVFGQTEDNQTIQATIKDFSNTHVMVDYNHPLAGKTLAFRFKVLGFREVSEEEILASHHDSGTGCCGGHGGHGGKKGGGCGCSCSHGEGGSHHHHHH”, the “soluble on expression in E. coli” value is given as “soluble”.

Take “MGSDKIHHHHHHMKFSKLADQVWGEEPDDQVRSFVFMSNLDAQETANTMDVSVSVERIHADLCGNTELASELHYTPDEWDEAQGWVKINYPLIDDTASASLDVVLDATFQPLPGQPFEGEALTLIDALLHHAENVAASNPWKRTTFHTAHMHPPGSNADCDYCLVLQRRGYVKAHEEIQQTIPLPSGDWSAGEFTVVDVEGTAFPSALIPSIVELQHRAALDVPHGNLSVAPAQWDEHRLAQQSERILKTGTKLFTVLFAEGSTVAAMSSIAIPPGSNPDIAEQGLTIVHPDFRGRGLGTAVKLAGLSLLSRCHPEIQRVATSNAVDNHAMLAINRSIGATEIARTTLWEKKL”: the “soluble on expression in E. coli” value was “not soluble”.

“MKVLITSGGTTEPIDNVRGISNFATGSLGKVTAENFLNAGHEVYLLAGLQAKLPEFTDRLTYIPIEGTHDLYEQMKNLVPDMDVVIHSMAVSDYRPIYMTGLENFTDKFSKEELLNFRPEKVGKISSKSDYQIMLLEKTPKIISYIKEWNPNVLLFGFKLLVGVEKSELLSVAREKLLTNHADFILANDLENIHGNDHQAFLVSKNHEITLKTKAEIADRLLKTSEELKND”: the “soluble on expression in E. coli” value was “soluble”.

“MNSCDFRVFLQEFGTTVHLSLPGSVSEKERLLLKLLMQGMSVTEISQYRNRSAKTISHQKKQLFEKLGIQSDITFWRDIFFQYNPEIISATGSNSHRYINDNHYHHIVTPEAISLALENHEFKPWIQPVFCAQTGVLTGCEVLVRWEHPQTGIIPPDQFIPLAESSGLIVIMTRQLMKQTADILMPVKHLLPDNFHIGINVSAGCFLAAGFEKECLNLVNKLGNDKIKLVLELTERNPIPVTPEARAIFDSLHQHNITFALDDFGTGYATYRYLQAFPVDFIKIDKSFVQMASVDEISGHIVDNIVELARKPGLSIVAEGVETQEQADLMIGKGVHFLQGYLYSPPVPGNKFISEWVMKAGG”: the “soluble on expression in E. coli” value was “soluble”.

For “MVELKVPMFPESVADGTLAQWNKNEGDFVNEGDILAEIETDKVVLEVPATSSGVLKGIKKHAGDTVLSEESLAIIDTAVSTSEPNQQTTNQGNASEATATGQEIDIKAPVFPESVADGTISEWHKKEGEAVSEGDILAEIETDKVVLEVPATSNGVLTKILKTAGETVLSAELIAKITAGGATATTKSEASVGVSQANNDPHLVPSARKAFNASGLDTAANIEGTGKKGRITSEDVKKAVASVNKPQQQTVVINQGARYEKRVKMTRLRQTIANRLVEVQHTNAILTTFNEVDMSAVMELRNKYKDMFVKEHDTKLGFMSFFIKAATEALKKFPDVNASIDGDEIVYHNYFDIGIAVGTDRGLVVPVLRDTDTKSLAELEADVLDKAIKGRDGKLSLEDMQGGTFTITNGGTYGSMLSTPIINSPQSAILGMHNIVERPVVVKGEIKIRPIMYLALSYDHRIIDGGTSVRFLKMIKELIEDPNRILLQV”, the “soluble on expression in E. coli” value is reported as “not soluble”.

Regarding “MKEDTLLRKLVADGEGVGDDRKVQQIATFFRESRKEDAKTSVPEAVKVTKAIEEMYKKMEVAKNELADAKIVKRNRQEYRKLVNVLEEVPSRAETTRKLGEVKDDLERQHERQKVLEAKLMDRRNHLQAFMIILSNFQRFCAEDDDDDAEVMSNPGEDDDAASVTEKQQEDDVRK”, the “soluble on expression in E. coli” value is recorded as “not soluble”.

Turning to “MNIENPAPILDQDPYVQAYPETRAFWEAAAQGRFVLPRCRDCGQSHWYPRGLCPLCGSTALEWQDAAGTGTLYSYSVMRAAPQPYAIAYVQLAEGPLVLTNIVDSDLERLRIGQPVRVAFQRTQEGRSAPVFVALAD”, the “soluble on expression in E. coli” value is on record as “not soluble”.

Turning to “MSAPPTAPADPSTGSDRPKRSVPPPRHPTHAVDRAFLDLERRRPEVRWDAGGVAYLSGPPPSLADLRAYVAFRLGELPLLTSRVTGGRRPGWQPSEDFPVDRHVYEVVADGPADWDTALHSALNAPFAPGAYWGVWLIHGHEPDAYALCYRFLHACQDGSAAAMTFRAMLGDGEPSARPLPGGSGVFGVPRRFGAAVALATRFLARTFTVRRHRPDPAFAPAGERRLWRGRVPVDTLRLIGAGRGGSAHDAHLAALAGALSVWAARSGVPLPRVTAVLPVDARRADEEQTWGNRCFALPVDLPVGPAPGRPDGSPDEEAPLRRLDQIMAVTRKLRGDTWRQAVQDLVRYMPDRPTAWYLRRMLSPRVTNVMATSMPLAEKGSLGETRVTGTALLPLLVPGHLCGVGLSFFGDWAEVSFVADRALPLGELLPELWEQAVRELAESVQRGLEHHHHHH”, the “soluble on expression in E. coli” value is listed as “not soluble”.

With “MQGQHPPAELPSLRRQKILLLLERDGKVMAAELSRHFAVSEDTIRRDLAELDAGGLVQRVHGGALPRPKDSGKDYFTRVGETNEAKLRLAQYAVQWVQDGQTVLFDSGSTTLHIAQSLPAGISLTAVTASPMIAVALAEYPKVRVILAGGQLNPATLSASGHEALRMIQGIKADLMFTGVCAIHPEIGISSLHFDEVPIKQAMFDSASEVIAVTTADKLGAMEPFVVVPCNRLHRLVTEQEAPGVDIEGYRQLGIEVLQVLEHHHHHH”, the “soluble on expression in E. coli” value is given as “not soluble”.

“MMHNPAHPGEVLKVAFLEEMGLTIQKLADHLHMTRASLSRVINGHASMSTELAIKLELAGFSKAKFWLDMQTNYNLWKTMQQAQPPISPLVSDSPQTSL”: the “soluble on expression in E. coli” value is reported as “not soluble”.

Turning to “MNYNNKILVSESGLSQKHLIHGDEELFQHELKTIFARNWLFLTHDSLIPAPGDYVTAKMGIDEVIVSRQNDGSIRAFLNVCRHRGKTLVSVEAGNAKGFVCSYHGWGFGSNGELQSVPFEKDLYGESLNKKCLGLKEVARVESFHGFIYGCFDQEAPPLMDYLGDAAWYLEPMFKHSGGLELVGPPGKVVIKANWKAPAENFVGDAYHVGWTHASSLRSGESIFSSLAGNAALPPEGAGLQMTSKYGSGMGVLWDGYSGVHSADLVPELMAFGGAKQERLNKEIGDVRARIYRSHLNCTVFPNNSMLTCSGVFKVWNPIDANTTEVWTYAIVEKDMPEDLKRRLADSVQRTVGPAGFWESDDNDNMETASQNGKKYQSRDSDLLSNLGFGEDVYGDAVYPGVVGKSAIGETSYRGFYRAYQAHVSSSNWAEFEHASSTWHTELTKTTDR”, the “soluble on expression in E. coli” value was “soluble”.

For the sequence “TIDAQLQKRAEQAFGDQAGAAVVMEVNTGEILAFVSNPEFDPALFAGRMPPEIWKQYLEDKRHPLENKALKGQYPPGSTYKIITALAGLEEGIIDDHTTVTCKGSYALGNTTFRCWDKKGHGAVDLRRALRESCDVYFYVLGEKLGIDRLSAYAQKFALGAPMGVGLDNEKGGLIPTSAWKLQRHKTRWFQGDTLSAAIGQGYVLMTPIQLASMTAAIATDGIVYRPRLVKRIIDRDGKVLREFQPEIITRADISPRSFKSVKEGLWAVVNESGGTGGMSRIPDVRVAGKTGTSQVVKLRDTRGFIPYQYRDHALFVAYAPYEHPEVAVAVVIEHGEHGGSAAAPIAGSILRAYFEGKGVIRR”, the “soluble on expression in E. coli” value was “not soluble”.

Consider “LMINDVPGLVTAWWDEELQALRIKWFTEYAEGSAVADAVEFAMTYVNENGVKNWLCDLSESQEALKAEDQEWVQTEFKRLIAESSLEKVVLIPPLPETGQDTEWLKDWEANTKRDYGGQIDARLLSEEGEIQRFFEKG”, for which the “soluble on expression in E. coli” value was “not soluble”.
